In US10597674B2, “HPPD variants and methods of use” (BASF Agricultural Solutions Seed, US LLC, priority 2015, dated 2020):
Numbering of substitutions follows the chain as printed.

B1: 97 (protein)
chain: MADLYENPMGLMGFEFIEFASPTPGTLEPIFEIMGFTKVATHRSKNVHLYRQGEINLILNNEPNSIASYFAAEHGPSVCGMAFRVKDSQKAYNRALELGAQPIHIDTGPMELNLPAIKGIGGAPLYLIDRFGEGSSIYDIDFVYLEGVERNPVGAGLKVIDHLTHNVYRGRMVYWANFYEKLFNFREARYFDIKGEYTGLTSKAMSAPDGMIRIPLNEESSKGAGQIEEFLMQFNGEGIQHVAFLTDDLVKTWDALKKIGMRFMTAPGDRYYEMLEGRLPDHGEPVDQLQARGILLDGSSVEGDKRLLLQIFSETLMGPVFFEFIQRKGHSGFGPDSFKVLFESKERDQVRRGVLTAD
modifications: mutant HPPD polypeptide
B2: 102 (protein)
chain: B1 chain with M264L, G268R, R270E, T315R, H330D, S331D, D336H, S344Q, K345M
modifications: mutant HPPD polypeptide
B3: 107 (protein)
chain: B1 chain with R213K, R270E, H330D, S331D, D336H, F338V, V340R, K345V
modifications: mutant HPPD polypeptide
B4: 100 (protein)
chain: B1 chain with M264L, R270E, S331D, S344Q, K345M
modifications: mutant HPPD polypeptide
B5: 99 (protein)
chain: B1 chain with R270E, H330D, S331D, F338V, V340R, K345V
modifications: mutant HPPD polypeptide
B6: 106 (protein)
chain: B1 chain with M264L, R270E, S331P, S344Q, K345M
modifications: mutant HPPD polypeptide

system: E. coli cells expressing an HPPD polypeptide; test: Brown color bioassay in liquid culture, residual brown color formation (BCF), OD440 after 96 hours; type: cell-based; conditions: brown color formation in absence of Cmpd. 1, culture supernatant after 96 hours, 5 mM HPP
Method: In an additional experiment, mutant HPPD polypeptides were analyzed using the principle of a colorimetric brown color assay (as, for example, described in U.S. Pat. No. 6,768,044). Bacterial cells expressing the HPPD polypeptides according to this invention were assayed in 96 well plate format (Nunc® 96 DeepWell™ plate, Sigma-Aldrich, St. Louis, USA) for HPPD polypeptides with improved HPPD inhibitor herbicide tolerance.
E. coli cells were grown in liquid LB medium (Carl Roth GmbH+Co. KG, Karlsruhe, Germany) containing the selection agent for the expression vector pSE420(RI)NX (WO2014/043435) and 5 mM para-hydroxyphenylpyruvate (HPP; Sigma-Aldrich, St. Louis, USA), in the presence of absence of the HPPD inhibitor herbicide e.g. Cmpd. 1 (1000 μM). An overnight culture of E. coli culture expressing one of the respective HPPD polypeptides according to this invention were adjusted to an OD600 of 0.3-0.5 in a final volume of 500 μL and incubated at 30 degree Celsius. Residual brown color formation was determined by measuring the brown color formation (BCF) in the presence and absence of Cmpd. […] Therefore, after 96 hours the culture was centrifuged and the supernatant of the culture was used to measure the optical density of the soluble brown pigment formation at 440 nm (OD440 nm).

In order of falling “Control BCF OD440nm” value:
1. B4  2.48
2. B2  2.47
3. B1  1.54
4. B5  1.52
5. B6  1.50
6. B3  1.38

same assay, conditions: brown color formation with Cmpd. 1 (1000 μM) relative to without, after 96 hours

In order of rising “Residual BCF OD440nm [%]” value:
1. B2  26%
2. B4  33%
3. B1  49%
4. B6  73%
5. B3  84%
6. B5  87%
